This passage reports self-cleavage results from the RNAGym collection of RNA variant scans (doi:10.7554/elife.80360).

B1: HDV Ribozyme (parent)
chain: GGCCGGCAUGGUCCCAGCCUCCUCGCUGGCGCCGGCUGGGCAACAUUCCGAGGGGACCGUCCCCUCGGUAAUGGCGAAUGGGACCCA

This series covers variants of B1. The series can be described thus: self-cleavage, relative activity (ratio to wild type); higher = more cleavage; co-transcriptional.
For the variant GGCCGGCAGGGUCCCAGCCUCCUCGCUGGCGCCGGCUGGGCAACAUUCCGAGGGGUCCGUCCCCUCGGUAAUGGCGAAUGGGACCCA, the self-cleavage is 1.01.
In the case of GGCCGGCACGGUCCCAGCCUCCUCGCUGGCGCCGGCUGGGCAACAUUCCGAGGGGACCGGCCCCUCGGUAAUGGCGAAUGGGACCCA, the self-cleavage came to 0.723.
Next, GGCCGGCAGGGUCCCAGCCUCCUCGCUGGCGCCGGCUGGGCCACAUUCCGAGGGGACCGUCCCCUCGGUAAUGGCGAAUGGGACCCA: 0.453.
The same measure for GGCCGGCAGGGUCCCAGCCUCCUCGCUGGCGCCGGCUGGGCAACAUUCCGAGGGGACCGUCCCCUCGGUAAUGGCGCAUGGGACCCA: 0.185; for GGCCGGCAGGGUCCCAGCCUCCUCGCUGGCGCCGGCUGGGCAUCAUUCCGAGGGGACCGUCCCCUCGGUAAUGGCGAAUGGGACCCA: 0.886.
The same measure for GGCCGGCAGGGUCCCAGCCUCCUCGGUGGCGCCGGCUGGGCAACAUUCCGAGGGGACCGUCCCCUCGGUAAUGGCGAAUGGGACCCA: 0.88.
GGCCGGCACGGUCCCAGCCUCCUCGCUGGCGCCGGCUGGGCAACAUUCCGAGGGGACCGUCCCCUCGGUAAUGGCGAAGGGGACCCA: the self-cleavage is 0.519.
Consider GGCCGGCACGGUCCCAGCCUCCUCGCUGGCGCCGGCUGGGCAACAUUCCGAGGGGACCUUCCCCUCGGUAAUGGCGAAUGGGACCCA, for which the self-cleavage is 1.17.
With GGCCGGCACGGUCCCAGCCUCCUCGCUGGCGCCGGCUGGGCAACAUUCCGAGGGGACCCUCCCCUCGGUAAUGGCGAAUGGGACCCA, the self-cleavage amounted to 1.09.
Next, GGCCGGCACGGUCCCAGCCUCCUCGCUGGCGCCGGCUGGGCAACAUUCCGAGGGGACCAUCCCCUCGGUAAUGGCGAAUGGGACCCA: 1.05; GGCCGGCAGGGUCCCAGCCUCGUCGCUGGCGCCGGCUGGGCAACAUUCCGAGGGGACCGUCCCCUCGGUAAUGGCGAAUGGGACCCA: 0.208; GGCCGGCAGGGUCCCAGCCUCCUCGCUGGCGCCGGCUGGGCAACAUUCCGAGGGGACCGUCCCCUCGGUAAUGGCGACUGGGACCCA: 0.208.
Next, GGCCGGCAGGGUCCCAGCCUCCUCGCUGGCGCCGGCUGGGCAACAUUCCGAGGGGACCGUCCCCUCGGUAAUGGCGAGUGGGACCCA: 0.166; GGCCGGCAGGGUCCCAGCGUCCUCGCUGGCGCCGGCUGGGCAACAUUCCGAGGGGACCGUCCCCUCGGUAAUGGCGAAUGGGACCCA: 0.
Next, GGCCGGCAGGGUCCCAGCUUCCUCGCUGGCGCCGGCUGGGCAACAUUCCGAGGGGACCGUCCCCUCGGUAAUGGCGAAUGGGACCCA: 0.119.
As to GGCCGGCACGGUCCCAGCCUCCUCGCUGGCGCCGGCUGGGCAACAUUCCGAGGGGACCGUCCCCUCGGUAAUGGCGAAUGGUACCCA, the self-cleavage was determined as 0.201.
Next, GGCCGGCACGGUCCCAGCCUCCUCGCUGGCGCCGGCUGGGCAACAUUCCGAGGGGACCGUCCCCUCGGCAAUGGCGAAUGGGACCCA: 0.969; GGCCGGCACGGUCCCAGCCUCCUCGCUGGCGCCGGCUGGGCAACAUUCCGAGGGGACCGUCCCCUCGGGAAUGGCGAAUGGGACCCA: 1.22; GGCCGGCACGGUCCCAGCCUCCUCGCUGGCGCCGGCUGGGCAACAUUCCGAGGGGACCGUCCCCUCGGAAAUGGCGAAUGGGACCCA: 1.02.
The same measure for GGCCGGCAGGGUCCCAGCCUGCUCGCUGGCGCCGGCUGGGCAACAUUCCGAGGGGACCGUCCCCUCGGUAAUGGCGAAUGGGACCCA: 0; for GGCCGGCAGGGUCCAAGCCUCCUCGCUGGCGCCGGCUGGGCAACAUUCCGAGGGGACCGUCCCCUCGGUAAUGGCGAAUGGGACCCA: 1.21.
Next, GGCCGGCAGGGUCCUAGCCUCCUCGCUGGCGCCGGCUGGGCAACAUUCCGAGGGGACCGUCCCCUCGGUAAUGGCGAAUGGGACCCA: 0.962; GGCCGGCACGGUCCCAGCCUCCUCGCUGGCGCCGGCUGGGCAACAUUCCGAGGGGACCGUCCCCCCGGUAAUGGCGAAUGGGACCCA: 1.22.
GGCCGGCACGGUCCCAGCCUCCUCGCUGGCGCCGGCUGGGCAACAUUCCGAGGGGACCGUCCCCGCGGUAAUGGCGAAUGGGACCCA: the self-cleavage was found to be 1.37.
The same measure for GGCCGGCACGGUCCCAGCCUCCUCGCUGGCGCCGGCUGGGCAACAUUCCGAGGGGACCGUCCCCACGGUAAUGGCGAAUGGGACCCA: 1.25; for GGCCGGCACGGUCCCAGCCUCCUCGCUGGCGCCGGCUGGGCAACAAUCCGAGGGGACCGUCCCCUCGGUAAUGGCGAAUGGGACCCA: 1.06.
Next, GGCCGGCAGGGUCCCAGCCUCCUUGCUGGCGCCGGCUGGGCAACAUUCCGAGGGGACCGUCCCCUCGGUAAUGGCGAAUGGGACCCA: 0.767; GGCCGGCAGGGUCCCAGCCUCCUAGCUGGCGCCGGCUGGGCAACAUUCCGAGGGGACCGUCCCCUCGGUAAUGGCGAAUGGGACCCA: 0.525.
Consider GGCCGGCACGGUCCCAGCCUCCUCGCUGGCGCCGGCUGGGCAACAUGCCGAGGGGACCGUCCCCUCGGUAAUGGCGAAUGGGACCCA, for which the self-cleavage was determined as 1.42.
As to GGCCGGCACGGUCCCAGCCUCCUCGCUGGCGCCGGCUGGGCAACAUCCCGAGGGGACCGUCCCCUCGGUAAUGGCGAAUGGGACCCA, the self-cleavage was determined as 0.969.
Next, GGCCGGCACGGUCCCAGCCUCCUCGCUGGCGCCGGCUGGGCAACAUUCCGAGGGGACCGUCCCCUCGGUAAUGGCGAAUUGGACCCA: 0.193; GGCCGGCACGGUCCCAGCCUCCUCGCUGGCGCCGGCUGGGCAACAUUCCGAGGGGACCGUCCCCUCGGUAAUGGCGAAUAGGACCCA: 0.277.
The same measure for GGCCGGCACGGUCCCAGCCUCCUCGCUGGCGCCGGCUGGGCAACAUUCCGAGGGGACCGUCCCCUCGGUAAUGGCGAAUCGGACCCA: 0.256; for GGCCGGCACGGUCCCAGCCUCCUCGCUGGCGCCGGCUGGGCAACAUUCCGAGGGGACCGUCCCCUCGGUAAUGGCGAAUGUGACCCA: 0.237.
Next, GGCCGGCACGGUCCCAGCCUCCUCGCUGGCGCCGGCUGGGCAACAUUCCGAGGGGACCGUCCCCUCGGUAAUGGCGAAUGAGACCCA: 0.415; GGCCGGCACGGUCCCAGCCUCCUCGCUGGCGCCGGCUGGGCAACAUUCCGAGGAGACCGUCCCCUCGGUAAUGGCGAAUGGGACCCA: 1.08.
In the case of GGCCGGCACGGUCCCAGCCUCCUCGCUGGCGCCGGCUGGGCAACAUUCCGAGGGGACCGUCCCCUCGGUAAUGGCAAAUGGGACCCA, the self-cleavage was 1.05.
The same measure for GGCCGGCACGGUCCCAGCCUCCUCGCUGGCGCCGGCUGGGCAACAUUCCGAGGGGACCGUCCCCUCGGUAAUGGCUAAUGGGACCCA: 1.05; for GGCCGGCAGGGUCCCAGCCUCCUCGCUGGCGCCGGCUGGGCAACAUUCCGCGGGGACCGUCCCCUCGGUAAUGGCGAAUGGGACCCA: 1.03.
Turning to GGCCGGCAGGGUCCCAGCCUCCUCGCUGGCGCCGGCUGGGCAACAUUCCGGGGGGACCGUCCCCUCGGUAAUGGCGAAUGGGACCCA, the self-cleavage was found to be 0.95.
The same measure for GGCCGGCAGGGUCCCAGCCUCCUCGCUGGCGCCGGCUGGGCAACAUUCCGUGGGGACCGUCCCCUCGGUAAUGGCGAAUGGGACCCA: 1.22; for GGCCGGCAGGGUUCCAGCCUCCUCGCUGGCGCCGGCUGGGCAACAUUCCGAGGGGACCGUCCCCUCGGUAAUGGCGAAUGGGACCCA: 1.07; for GGCCGGCAGGGUCCCAGCCUCCUCGCUGGGGCCGGCUGGGCAACAUUCCGAGGGGACCGUCCCCUCGGUAAUGGCGAAUGGGACCCA: 0.145.
The same measure for GGCCGGCAGGGUCCCAGCCUCCUCGCUGGCGCCGGCUGGGCAACGUUCCGAGGGGACCGUCCCCUCGGUAAUGGCGAAUGGGACCCA: 0.684.
Take GGCCGGCAGGGUCCCAGCCUCCUCGCUGGCGCCGGCUGGGCAACUUUCCGAGGGGACCGUCCCCUCGGUAAUGGCGAAUGGGACCCA: the self-cleavage is 0.692.
Next, GGCCGGCAGGGUCCCAGCCUCCUCGCUGGCGCCGGCUGGGCAACAUUCCGAGGGGACCGUCCCCUCGGUAAUGGCGAAUGGGACCCU: 0.853; GGCCGGCAGGGUCCCAGGCUCCUCGCUGGCGCCGGCUGGGCAACAUUCCGAGGGGACCGUCCCCUCGGUAAUGGCGAAUGGGACCCA: 0.
Take GGCCGGCAGGGUCCCAGUCUCCUCGCUGGCGCCGGCUGGGCAACAUUCCGAGGGGACCGUCCCCUCGGUAAUGGCGAAUGGGACCCA: the self-cleavage came to 0.504.
Next, GGCCGGCAGGGUCCCAGACUCCUCGCUGGCGCCGGCUGGGCAACAUUCCGAGGGGACCGUCCCCUCGGUAAUGGCGAAUGGGACCCA: 0.0923; GGCCGGCACGGUCCCAGCCCCCUCGCUGGCGCCGGCUGGGCAACAUUCCGAGGGGACCGUCCCCUCGGUAAUGGCGAAUGGGACCCA: 0; GGCCGGCACGGUCCCAGCCACCUCGCUGGCGCCGGCUGGGCAACAUUCCGAGGGGACCGUCCCCUCGGUAAUGGCGAAUGGGACCCA: 0.
Next, GGCCGGCAGGGUCCCCGCCUCCUCGCUGGCGCCGGCUGGGCAACAUUCCGAGGGGACCGUCCCCUCGGUAAUGGCGAAUGGGACCCA: 0.712; GGCCGGCAGGGUCCCGGCCUCCUCGCUGGCGCCGGCUGGGCAACAUUCCGAGGGGACCGUCCCCUCGGUAAUGGCGAAUGGGACCCA: 1.42; GGCCGGCACGGUCCCAGCCUCCUCGCUGGCGCCGGCUGGGCAACAUUCCGAGGGGACCGUCCCCUCGUUAAUGGCGAAUGGGACCCA: 0.655.
The same measure for GGCCGGCACGGUCCCAGCCUCCUCGCUGGCGCCGGCUGGGCAACAUUCCGAGGGGACCGUCCCCUCGAUAAUGGCGAAUGGGACCCA: 1.17.
Consider GGCCGGCAGGGUCCCAGCCUCCUCGCUGGCGCCGGCUGGGCAACAUUCCGAGGGGACCGUCCCCUCGGUAAUGGCGAAUGGGUCCCA, for which the self-cleavage came out at 0.453.
Take GGCCGGCAGGGUCCCAGCCUCCUCGCUGGCGCCGGCUGGGCAACAUUCCGAGGGGACCGUCCCCUCGGUAAUGGCGAAUGGGCCCCA: the self-cleavage turned out to be 0.554.
In the case of GGCCGGCAGGGUCCCAGCCUCCUCGCUGGCGCCGGCUGGGCAACAUUCCGAGGGGACCGUCCCCUCGGUAAUGGCGAAUGGGGCCCA, the self-cleavage came to 0.525.
Next, GGCCGGCACGGUCCCAGCCUCCUCGCUGGCGCCGGCCGGGCAACAUUCCGAGGGGACCGUCCCCUCGGUAAUGGCGAAUGGGACCCA: 0.978; GGCCGGCACGGUCCCAGCCUCCUCGCCGGCGCCGGCUGGGCAACAUUCCGAGGGGACCGUCCCCUCGGUAAUGGCGAAUGGGACCCA: 0.554.
GGCCGGCACGGUCCCAGCCUCCUCGCAGGCGCCGGCUGGGCAACAUUCCGAGGGGACCGUCCCCUCGGUAAUGGCGAAUGGGACCCA: the self-cleavage was found to be 0.935.
The same measure for GGCCGGCACGGUCCCAGCCUCCUCGCUGGCGCCGGCUGGGCAACAUUCCGAGGGGACCGUCCCCUCGGUAAGGGCGAAUGGGACCCA: 0.582.
Next, GGCCGGCACGGUCCCAGCCUCCUCGCUGGCGCCGGCUGGGCAACAUUCCGAGUGGACCGUCCCCUCGGUAAUGGCGAAUGGGACCCA: 1.26; GGCCGGCACGGUCCCAGCCUCCUCGCUGGCGCCGGCUGGGCAACAUUCCGAGGGGACCGUCCCCUCGGUAAUGACGAAUGGGACCCA: 0.653.
